# Reference: patent publication US20220389077A1, “ALLOGENEIC CELL COMPOSITIONS AND METHODS OF USE” (Poseida Therapeutics, Inc., priority 2018, published 2022)
# B1: CD2z CSR: chimeric stimulatory receptor: CD2 signal peptide, extracellular, transmembrane and cytoplasmic domains with CD3z intracellular domain (SEQ ID NO: 17062) (protein)
# chain: MSFPCKFVASFLLIFNVSSKGAVSKEITNALETWGALGQDINLDIPSFQMSDDIDDIKWEKTSDKKKIAQFRKEKETFKEKDTYKLFKNGTLKIKHLKTDDQDIYKVSIYDTKGKNVLEKIFDLKIQERVSKPKISWTCINTTLTCEVMNGTDPELNLYQDGKHLKLSQRVITHKWTTSLSAKFKCTAGNKVSKESSVEPVSCPEKGLDIYLIIGICGGGSLLMVFVALLVFYITKRKKQRSRRNDEELETRAHRVATEERGRKPHQIPASTPQNPATSQHPPPPPGHRSQAPSHRPPPPGHRVQHQPQKRPPAPSGTQVHQQKGPPLPRPRVQPKPPHGAAENSLSPSSNRVKFSRSADAPAYKQGQNQLYNELNLGRREEYDVLDKRRGRDPEMGGKPRRKNPQEGLYNELQKDKMAEAYSEIGMKGERRRGKGHDGLYQGLSTATKDTYDALHMQALPPR
# Assays:
# Format in all cases: cell-based, human
# [1] = system: CAR-T cells; experiment: Expansion of CAR-T cells with CSR delivered transiently by mRNA or stably by piggyBac; conditions: for expansion of CAR-T cells (total live CAR-T cells): 19 day culture, BCMA CAR, CSR transient or stable
# Text: FIG. 18 is a graph showing that delivery of CSR enhances the expansion of CAR-T cells. CSRs were delivered to CAR-T cells either transiently by mRNA or stably by piggyBac®. Pan T cells isolated from the blood of a normal donor were genetically modified using the piggyBac® DNA modification system and the standard Poseida process. Cells were co-electroporated in a single reaction with mRNA encoding the Super piggyBac™ transposase enzyme (SPB), a transposon encoding a BCMA CAR and selection gene, along with an additional mRNA encoding a CSR (either CD28z or CD2z; resulting in transient expression) or a CD19 mRNA control, or, with a transposon encoding a BCMA CAR, selection gene and a CSR (either CD28z or CD2z; resulting in stable expression). The cells were subsequently stimulated with agonist mAbs anti-CD2, anti-CD3 and anti-CD28, and were later selected for genetic modification over the course of a 19 day culture period. At the end of the initial culture period all T cells expressed the CAR, indicating successful selection for genetically-modified cells (data not shown). Bars represent total live CAR-T cells in well and numbers indicate fold-enhancement of expansion above CAR-T cells produced in the absence of a CSR or a CD19 mRNA control.
# Pan T cells isolated from healthy donor blood were genetically modified using the piggyBac® DNA modification system in combination with the Cas-CLOVER™ gene-editing system (CC) for the production of allogeneic (Allo) CAR-T cells, or without CC gene-editing for the production of autologous (Auto) CAR-T cells; auto CAR-T cells were produced by nucleofection of an mRNA encoding the super piggyBac® transposase enzyme (SPB) and a transposon encoding a CAR, selection gene and a safety switch. […] Following EP, all cells were subsequently stimulated with a cocktail of agonist mAbs anti-CD2, anti-CD3 and anti-CD28, and were later selected for genetic modification over the course of a 19-day culture period using the selection gene. […]
# [2] = system: CAR molecule on the surface of T cells; experiment: Staining for surface expression of CAR after secondary expansion; conditions: DKO cells
# Text: After secondary expansion, cells (Mock (WT T cells), WT CAR-T cells, DKO CAR-T cells, DKO CAR-T cells+CD2z CSR, and DKO CAR-T cells+CD28z CSR) were stained for the surface-expression of CAR and compared to control WT CAR-T cells and Mock T cells.
# [3] = system: CD45RA, CD45RO, and CD62L; experiment: Memory phenotype by surface CD45RA, CD45RO and CD62L staining; conditions: WT and DKO CAR-T cells
# Text: WT CAR-T cells, DKO CAR-T cells, DKO CAR-T cells+CD2z, and DKO CAR-T cells+CD28z were stained for expression of surface CD45RA, CD45RO, and CD62L to define Tscm, Tcm, Tem, and Teff cells; Tscm (CD45RA^+CD45RO^−CD62L^+), Tcm (CD45RA^−CD45RO^+CD62L^+), Tem (CD45RA^−CD45RO^+CD62L^−), Teff (CD45RA^+CD45RO^−CD62L^−). […] This phenotype may have a negative impact on the in vivo functionality of these CAR T cells since they appear to be more differentiated.
# Allo CAR-T cells with no CSR and Allo CAR-Ts with CSR that was delivered either stably or transiently were stained for expression of surface CD45RA, CD45RO, and CD62L to define Tscm, Tcm, Tem, and Teff cells; Tscm (CD45RA^+CD45RO^−CD62L), Tcm (CD45RA^−CD45RO^+CD62L^+), Tem (CD45RA^−CD45RO^+CD62L^−), Teff ([…]CD62L^−). All samples were performed in duplicate, and data is shown in bar graph where error bars represent standard deviation.
# [4] = system: TCRb and b2M; experiment: Gene editing (knockout of TCR and MHCI) of Allo CAR-T cells with CSR; conditions: up to 14-day culture; CSR stable or transient
# Text: Pan T cells isolated from healthy donor blood were genetically modified using the piggyBac® DNA modification system in combination with the Cas-CLOVER™ gene-editing system (CC) to produce allogeneic (Allo) CAR-T cells. […] Following EP, all cells were subsequently stimulated with a cocktail of agonist mAbs anti-CD2, anti-CD3 and anti-CD28, and were later selected for genetic modification over the course of up to a 14-day culture period using the selection gene. At the end of the initial culture period, all T cells expressed the CAR, indicating successful selection for genetically-modified cells (data not shown). All samples were performed in duplicate, and data is shown in bar graph where error bars represent standard deviation.
# [5] = system: Allo CAR-T cells; experiment: Expansion of Allo CAR-T cells with WT or mutant (D111H) CSR CD2z; conditions: up to 15-day culture; CSR stable or transient
# Text: FIG. 24A is a bar graph showing that the delivery of CSR CD2z-D111H mutant enhances the expansion of Allo CAR-T cells. Pan T cells isolated from healthy donor blood were genetically modified using the piggyBac® DNA modification system in combination with the Cas-CLOVER™ gene-editing system (CC) for the production of allogeneic (Allo) CAR-T cells, or without CC gene-editing, as a control, for the production of autologous (Auto) CAR-T without a CSR (No CSR); auto CAR-T cells were produced by nucleofection of an mRNA encoding the super piggyBac™ transposase enzyme (SPB) and a transposon encoding a CAR, selection gene and a safety switch. […] Following EP, all cells were subsequently stimulated with a cocktail of agonist mAbs anti-CD2, anti-CD3 and anti-CD28, and were later selected for genetic modification over the course of up to a 15-day culture period using the selection gene. At the end of the initial culture period, all T cells expressed the CAR, indicating successful selection for genetically-modified cells (data not shown), and then all non-edited TCR-positive cells were depleted via negative selection to yield a population of Allo CAR-T cells that were >99% TCR-negative (data not shown).
Molecule,expansion of CAR-T cells (total live CAR-T cells) [1],surface expression of CAR [2],"memory phenotype (Tscm, Tcm, Tem, Teff) [3]",degree of gene editing compared to Allo CAR-T cells produced without a CSR [4],"expansion of CAR-T cells compared to CAR-T cells produced without a CSR ([1]; 19-day culture, Auto and Allo CAR-T, CSR stable or mRNA 5, 10, 20 μg)",peak expansion of Allo CAR-T cells compared to Allo CAR-T cells produced without a CSR [5]
"CD28z CSR: chimeric stimulatory receptor: CD28 signal peptide, extracellular, transmembrane and cytoplasmic domains with CD3z intracellular domain (SEQ ID NO: 17060)",a greater degree of expansion,does not have a significant impact,"significantly more differentiated, favoring Tcm and Tem cells",–,–,–
B1,a greater degree of expansion,does not have a significant impact,comprised predominantly of exceptionally high levels of favorable Tscm and Tcm cells,a similar or greater degree of gene editing,a greater degree of expansion,a greater degree of expansion
